What all share (assay): Kinase Profiling Assay
Common to all, as to type: biochemical
Common to all, as to details: peptide 100 μM

For one assay, the target named is T1, EphA3(h) (Homo sapiens, UniProt P29320).
T1 sequence (P29320 21-983): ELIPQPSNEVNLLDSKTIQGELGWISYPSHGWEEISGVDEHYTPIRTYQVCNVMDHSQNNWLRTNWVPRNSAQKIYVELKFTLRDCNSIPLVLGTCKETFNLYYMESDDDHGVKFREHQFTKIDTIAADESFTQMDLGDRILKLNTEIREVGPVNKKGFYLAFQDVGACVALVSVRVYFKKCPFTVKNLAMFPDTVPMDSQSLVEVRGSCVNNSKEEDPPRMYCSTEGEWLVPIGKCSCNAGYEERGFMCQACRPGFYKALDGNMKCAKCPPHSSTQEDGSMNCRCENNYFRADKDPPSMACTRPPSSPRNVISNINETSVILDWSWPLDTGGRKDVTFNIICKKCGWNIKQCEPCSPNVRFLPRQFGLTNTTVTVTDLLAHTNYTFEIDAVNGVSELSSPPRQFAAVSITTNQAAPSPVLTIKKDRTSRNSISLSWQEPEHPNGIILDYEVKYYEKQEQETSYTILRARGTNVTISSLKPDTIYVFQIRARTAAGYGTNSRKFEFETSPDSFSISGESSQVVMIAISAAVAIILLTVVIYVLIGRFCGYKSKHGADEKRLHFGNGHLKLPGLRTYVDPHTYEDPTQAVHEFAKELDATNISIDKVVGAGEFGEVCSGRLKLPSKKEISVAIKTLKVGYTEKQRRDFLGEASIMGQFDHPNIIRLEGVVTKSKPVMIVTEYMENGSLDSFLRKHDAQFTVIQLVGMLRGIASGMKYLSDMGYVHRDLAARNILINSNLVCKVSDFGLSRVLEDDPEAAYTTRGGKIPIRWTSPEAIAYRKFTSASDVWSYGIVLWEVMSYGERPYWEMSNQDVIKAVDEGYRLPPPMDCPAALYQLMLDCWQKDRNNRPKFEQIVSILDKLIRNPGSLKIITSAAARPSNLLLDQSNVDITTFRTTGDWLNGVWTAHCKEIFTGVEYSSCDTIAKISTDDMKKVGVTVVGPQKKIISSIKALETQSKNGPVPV
The method in brief: (§1)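 Kinase inhibition by MK2 inhibitory peptides was profiled radiometrically, with substrate phosphorylation from labeled ATP read by scintillation after capture on a charged filter. Values are relative to 100% activity and measured in duplicate.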

A further assay has as its target T2, NEK3(h) (Homo sapiens, UniProt P51956).
T2 construct: purchased Millipore
T2 sequence (P51956 1-506): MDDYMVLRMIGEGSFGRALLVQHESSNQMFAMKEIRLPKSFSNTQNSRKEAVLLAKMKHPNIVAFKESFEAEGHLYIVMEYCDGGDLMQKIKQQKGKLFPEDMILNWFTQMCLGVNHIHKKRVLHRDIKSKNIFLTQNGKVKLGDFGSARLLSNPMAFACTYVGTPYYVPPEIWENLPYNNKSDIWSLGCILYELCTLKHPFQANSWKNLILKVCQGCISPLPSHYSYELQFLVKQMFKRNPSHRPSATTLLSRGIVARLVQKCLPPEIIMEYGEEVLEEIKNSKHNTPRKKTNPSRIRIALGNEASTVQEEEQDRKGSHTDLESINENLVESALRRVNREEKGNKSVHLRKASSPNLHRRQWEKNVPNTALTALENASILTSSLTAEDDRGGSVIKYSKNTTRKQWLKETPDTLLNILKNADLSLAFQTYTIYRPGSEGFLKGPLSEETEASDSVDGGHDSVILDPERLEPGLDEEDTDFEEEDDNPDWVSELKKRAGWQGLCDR
The method in brief: as §1

A further assay addresses T3, Rse(h) (Homo sapiens, UniProt Q06418).
T3 sequence (Q06418 41-890): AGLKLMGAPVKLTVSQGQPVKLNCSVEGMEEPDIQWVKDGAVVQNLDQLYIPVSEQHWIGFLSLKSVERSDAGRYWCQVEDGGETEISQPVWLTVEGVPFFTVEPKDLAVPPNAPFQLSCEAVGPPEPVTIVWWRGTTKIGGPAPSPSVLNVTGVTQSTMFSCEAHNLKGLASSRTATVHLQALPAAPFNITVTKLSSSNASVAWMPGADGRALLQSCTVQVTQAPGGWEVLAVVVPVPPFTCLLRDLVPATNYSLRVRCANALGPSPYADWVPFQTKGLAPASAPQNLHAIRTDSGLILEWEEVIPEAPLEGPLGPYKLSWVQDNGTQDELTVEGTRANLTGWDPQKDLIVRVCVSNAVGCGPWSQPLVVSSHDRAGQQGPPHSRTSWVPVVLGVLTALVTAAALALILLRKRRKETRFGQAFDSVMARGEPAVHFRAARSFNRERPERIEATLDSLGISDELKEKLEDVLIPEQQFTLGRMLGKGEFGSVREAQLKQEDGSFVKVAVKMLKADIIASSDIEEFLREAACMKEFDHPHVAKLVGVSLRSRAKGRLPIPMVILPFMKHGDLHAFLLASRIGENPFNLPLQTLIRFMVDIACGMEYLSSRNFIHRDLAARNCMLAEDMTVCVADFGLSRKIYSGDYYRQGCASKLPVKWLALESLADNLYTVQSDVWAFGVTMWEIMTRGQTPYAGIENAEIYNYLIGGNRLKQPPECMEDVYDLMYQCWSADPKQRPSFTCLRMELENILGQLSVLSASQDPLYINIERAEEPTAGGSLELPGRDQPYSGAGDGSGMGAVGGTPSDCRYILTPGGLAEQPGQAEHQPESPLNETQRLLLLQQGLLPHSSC
The method in brief:
as §1

The target of a further assay is T4, GSK3β(h) (Homo sapiens, UniProt P49841).
T4 construct: purchased Millipore
In outline:
as §1

The target of a further assay is T5, MSSK1(h) (Homo sapiens, UniProt Q9UPE1).
T5 construct: purchased Millipore
The method in brief:
as §1

The target in the next assay is PKCη(h) (Homo sapiens, UniProt P24723). In outline:
as §1

In a further assay the target is cKit(V560G)(h) (Homo sapiens, UniProt P10721, V560G). In outline: as §1

No end group written: not given here.

T4 sequence (P49841 whole entry): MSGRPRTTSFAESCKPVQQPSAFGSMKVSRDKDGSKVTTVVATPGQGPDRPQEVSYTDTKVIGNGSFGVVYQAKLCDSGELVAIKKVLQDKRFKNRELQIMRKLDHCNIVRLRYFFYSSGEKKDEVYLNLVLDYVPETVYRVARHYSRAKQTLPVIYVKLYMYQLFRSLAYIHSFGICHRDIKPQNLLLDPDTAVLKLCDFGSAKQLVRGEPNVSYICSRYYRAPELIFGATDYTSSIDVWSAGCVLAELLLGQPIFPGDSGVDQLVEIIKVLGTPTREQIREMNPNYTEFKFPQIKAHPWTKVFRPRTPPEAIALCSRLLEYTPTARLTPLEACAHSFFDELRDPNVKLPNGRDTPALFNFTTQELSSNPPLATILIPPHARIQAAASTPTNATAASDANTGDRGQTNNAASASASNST
T5 sequence (Q9UPE1 whole entry): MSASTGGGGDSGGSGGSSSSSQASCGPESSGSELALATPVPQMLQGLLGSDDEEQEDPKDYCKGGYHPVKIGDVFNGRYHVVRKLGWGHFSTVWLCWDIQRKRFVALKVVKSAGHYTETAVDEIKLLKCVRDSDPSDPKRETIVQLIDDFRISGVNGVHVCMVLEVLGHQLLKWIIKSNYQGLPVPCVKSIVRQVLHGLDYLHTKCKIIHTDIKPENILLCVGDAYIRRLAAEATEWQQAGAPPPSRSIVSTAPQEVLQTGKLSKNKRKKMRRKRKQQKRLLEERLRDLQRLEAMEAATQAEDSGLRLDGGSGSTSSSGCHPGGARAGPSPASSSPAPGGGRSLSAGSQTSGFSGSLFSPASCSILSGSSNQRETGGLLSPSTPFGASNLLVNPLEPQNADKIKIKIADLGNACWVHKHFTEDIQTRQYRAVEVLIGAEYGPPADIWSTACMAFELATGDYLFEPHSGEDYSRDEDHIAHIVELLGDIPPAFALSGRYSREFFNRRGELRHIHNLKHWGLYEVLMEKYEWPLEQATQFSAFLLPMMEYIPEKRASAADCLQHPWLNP
PKCη(h), sequence (P24723 whole entry): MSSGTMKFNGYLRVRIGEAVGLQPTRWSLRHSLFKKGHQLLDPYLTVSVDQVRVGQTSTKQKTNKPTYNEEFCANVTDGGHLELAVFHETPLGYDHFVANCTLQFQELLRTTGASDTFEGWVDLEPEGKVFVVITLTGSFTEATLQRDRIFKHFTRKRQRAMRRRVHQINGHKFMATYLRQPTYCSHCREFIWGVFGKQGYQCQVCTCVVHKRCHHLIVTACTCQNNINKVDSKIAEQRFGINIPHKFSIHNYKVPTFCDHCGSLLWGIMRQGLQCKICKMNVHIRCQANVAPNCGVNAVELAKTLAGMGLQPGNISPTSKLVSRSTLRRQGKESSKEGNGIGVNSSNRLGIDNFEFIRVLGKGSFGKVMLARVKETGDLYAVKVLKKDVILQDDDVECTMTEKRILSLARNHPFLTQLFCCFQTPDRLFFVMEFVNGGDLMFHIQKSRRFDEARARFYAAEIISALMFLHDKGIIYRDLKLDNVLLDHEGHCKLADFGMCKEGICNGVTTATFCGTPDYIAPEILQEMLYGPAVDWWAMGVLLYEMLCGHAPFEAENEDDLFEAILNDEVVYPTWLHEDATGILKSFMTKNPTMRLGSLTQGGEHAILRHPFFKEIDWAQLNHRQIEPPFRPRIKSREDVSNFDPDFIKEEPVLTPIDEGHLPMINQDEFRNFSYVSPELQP

Regarding FAKLAARLYRKALARQLGVAA [MMI-0300], the “% activity” value came to 6% with EphA3(h); 92% with NEK3(h); 88% with Rse(h); 205% in the assay with GSK3β(h); 77% with MSSK1(h).

For the sequence “HRRIKAWLKKIKALARQLGVAA (Mammal) [MMI-0500]”, the “% activity” value in the assay with EphA3(h) came out at 33%; with NEK3(h) it was 20%; with PKCη(h), 45%; in the assay with Rse(h) it was 63%; with GSK3β(h), 238%; in the assay with cKit(V560G)(h) it was 198%. Also, the “% activity” value in the assay with MSSK1(h) amounted to 22%.

With KAFAKLAARLYRKALARQLGVAA [MMI-0400], the “% activity” value is recorded as 12% with EphA3(h); 85% with NEK3(h); 98% in the assay with PKCη(h); 89% with Rse(h); 202% with GSK3β(h); 124% with cKit(V560G)(h). Besides, the “% activity” value with MSSK1(h) was determined as 75%.

As for YARAAARQARAKALARQLGVAA [MMI-0100], the results for the “% activity” value on NEK3(h), at cKit(V560G)(h) and on MSSK1(h) were 100%, 94% and 82%, respectively.

With “YARAAARQARAKALNRQLGVA (Mammal) [MMI-0200]”, the “% activity” value with NEK3(h) came to 100%; with PKCη(h) it was 101%; in the assay with Rse(h), 88%; in the assay with GSK3β(h), 132%; with MSSK1(h), 100%.

The values are drawn from US20150258192A1, “COMPOSITIONS AND METHODS FOR PREVENTING OR TREATING CHRONIC LUNG ALLOGRAFT DYSFUNCTION (CLAD) AND IDIOPATHIC PULMONARY FIBROSIS (IPF)” (priority 2014, published 2015).
